This test deals with T1, aryl hydrocarbon receptor (human (endogenous in HL-60), UniProt P35869 11-848).
T1 sequence (looked up): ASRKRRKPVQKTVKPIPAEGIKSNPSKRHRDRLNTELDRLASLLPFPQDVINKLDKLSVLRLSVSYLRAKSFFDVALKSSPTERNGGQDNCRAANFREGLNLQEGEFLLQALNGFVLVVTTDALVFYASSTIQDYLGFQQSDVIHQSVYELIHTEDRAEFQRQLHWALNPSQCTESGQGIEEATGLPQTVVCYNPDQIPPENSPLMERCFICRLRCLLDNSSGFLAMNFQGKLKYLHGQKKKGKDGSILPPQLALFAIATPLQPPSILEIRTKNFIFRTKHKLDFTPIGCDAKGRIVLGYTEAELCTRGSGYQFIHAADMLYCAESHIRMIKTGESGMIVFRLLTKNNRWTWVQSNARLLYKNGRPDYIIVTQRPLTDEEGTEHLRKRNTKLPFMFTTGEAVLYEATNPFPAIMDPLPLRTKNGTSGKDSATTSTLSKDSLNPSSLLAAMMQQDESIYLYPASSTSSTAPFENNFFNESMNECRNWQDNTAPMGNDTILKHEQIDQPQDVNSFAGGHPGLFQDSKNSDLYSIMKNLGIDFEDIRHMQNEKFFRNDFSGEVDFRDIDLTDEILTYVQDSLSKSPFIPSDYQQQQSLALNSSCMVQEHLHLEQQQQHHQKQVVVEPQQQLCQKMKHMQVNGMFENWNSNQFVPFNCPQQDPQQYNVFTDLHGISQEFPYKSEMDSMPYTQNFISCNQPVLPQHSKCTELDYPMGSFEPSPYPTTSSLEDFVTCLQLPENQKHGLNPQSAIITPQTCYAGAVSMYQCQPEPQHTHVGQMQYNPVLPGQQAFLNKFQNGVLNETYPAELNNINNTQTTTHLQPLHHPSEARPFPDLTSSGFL
Description: FRET or BRET.

B1: Cbl-b (natural protein, human (endogenous in HL-60), UniProt Q13191 1-982, looked up)
chain: MANSMNGRNPGGRGGNPRKGRILGIIDAIQDAVGPPKQAAADRRTVEKTWKLMDKVVRLCQNPKLQLKNSPPYILDILPDTYQHLRLILSKYDDNQKLAQLSENEYFKIYIDSLMKKSKRAIRLFKEGKERMYEEQSQDRRNLTKLSLIFSHMLAEIKAIFPNGQFQGDNFRITKADAAEFWRKFFGDKTIVPWKVFRQCLHEVHQISSGLEAMALKSTIDLTCNDYISVFEFDIFTRLFQPWGSILRNWNFLAVTHPGYMAFLTYDEVKARLQKYSTKPGSYIFRLSCTRLGQWAIGYVTGDGNILQTIPHNKPLFQALIDGSREGFYLYPDGRSYNPDLTGLCEPTPHDHIKVTQEQYELYCEMGSTFQLCKICAENDKDVKIEPCGHLMCTSCLTAWQESDGQGCPFCRCEIKGTEPIIVDPFDPRDEGSRCCSIIDPFGMPMLDLDDDDDREESLMMNRLANVRKCTDRQNSPVTSPGSSPLAQRRKPQPDPLQIPHLSLPPVPPRLDLIQKGIVRSPCGSPTGSPKSSPCMVRKQDKPLPAPPPPLRDPPPPPPERPPPIPPDNRLSRHIHHVESVPSRDPPMPLEAWCPRDVFGTNQLVGCRLLGEGSPKPGITASSNVNGRHSRVGSDPVLMRKHRRHDLPLEGAKVFSNGHLGSEEYDVPPRLSPPPPVTTLLPSIKCTGPLANSLSEKTRDPVEEDDDEYKIPSSHPVSLNSQPSHCHNVKPPVRSCDNGHCMLNGTHGPSSEKKSNIPDLSIYLKGDVFDSASDPVPLPPARPPTRDNPKHGSSLNRTPSDYDLLIPPLGEDAFDALPPSLPPPPPPARHSLIEHSKPPGSSSRPSSGQDLFLLPSDPFVDLASGQVPLPPARRLPGENVKTNRTSQDYDQLPSCSDGSQAPARPPKPRPRRTAPEIHHRKPHGPEAALENVDAKIAKLMGEGYAFEEVKRALEIAQNNVEVARSILREFAFPPPVSPRLNL
With B1, the “fold weaker FRET signal than the RARα/RXRα interaction” value is about 4 fold.

The record behind these values is publication PMC6586535 (Leukemia & lymphoma, 2018).
